The text below walks through data of patent publication EP4467153A1, “CONSTRAINED PEPTIDE INHIBITORS OF LRRK2-FADD INTERACTIONS” (University of Georgia Research Foundation, Inc., priority 2023, dated 2024).

Positions of bridges follow the written chain, without caps; N, C: chain ends. Non-standard residues stand in square brackets, D forms with d. Primed or numbered codes have the meaning given here. FAM = 5(6)-carboxyfluorescein label; S5 = C=CCCC[C@](C)(N)C(=O)O; PEG3′ = PEG3 spacer

The test deals with T1, LRRK2-FADD PPI (Flag G2019S-LRRK2 and V5-FADD) (Homo sapiens, UniProt Q5S007, G2019S).
T1 construct: expressed in transfected cells; host or cells: HEK293T
The test can be described thus: Co-immunoprecipitation of LRRK2-FADD interaction in transfected HEK293T cells. The format is cell-based. Particulars: 10 µM, 48 hr, normalized to immunoprecipitated Flag-LRRK2. How it is done: It was then assessed whether this peptide library (FARM1-FARM5) could disrupt the interaction between over-expressed Flag G2019S-LRRK2 and V5-FADD by co-immunoprecipitation. Flag-LRRK2 was purified on anti-Flag resin and the eluate as well as the protein extract (input) separated by SDS-PAGE, with the membranes probed for V5 (FADD) and Flag (LRRK2). The transfected cells were treated with the indicated peptide (10 µM) for a total of 48 hr prior to collection. […] To minimize the use of primary mouse cortical neuron cultures, FARMS was used in subsequent experiments to examine the potential neuroprotective effects of LRRK2-FADD disruption.
Assessment of LRRK2-FADD interaction. Co-immunoprecipitation was undertaken to determine the effects of the stapled peptides on the LRRK2-FADD PPI, as previously described. Briefly, 10cm plates of HEK293T cells transiently expressing Flag-WT or mutant LRRK2 and V5-FADD (at a 3:1 ratio), and treated with different concentrations of FARM peptides (as indicated in the Figure legends), were washed in PBS and lysed in co-IP buffer (20mM HEPES, pH7.4; 150 mM NaCl; 0.1% NP40; 2 mM EGTA; 2 mM MgCl2; 10% glycerol, pH 7.2; protease and phosphatase cocktail [Agilent Technologies]) for 30 min on ice followed by 15 strokes with a Dounce glass homogenizer, and centrifugation at 13000 rpm for 15 min to remove cellular debris. Following pre-clearing with IgG-coupled beads, 40 µl of washed anti-Flag resin (Sigma-Aldrich) per mg of protein was added and the samples incubated under rotation overnight at 4°C. The following morning, the beads were centrifuged and washed a total of 5X with coIP buffer, before elution in 2X SDS sample buffer at 95°C for 10 min. The eluate (and input) was separated by SDS-PAGE and membranes probed with anti-Flag (LRRK2) and V5 (FADD).

T1 sequence (Q5S007 whole entry G2019S): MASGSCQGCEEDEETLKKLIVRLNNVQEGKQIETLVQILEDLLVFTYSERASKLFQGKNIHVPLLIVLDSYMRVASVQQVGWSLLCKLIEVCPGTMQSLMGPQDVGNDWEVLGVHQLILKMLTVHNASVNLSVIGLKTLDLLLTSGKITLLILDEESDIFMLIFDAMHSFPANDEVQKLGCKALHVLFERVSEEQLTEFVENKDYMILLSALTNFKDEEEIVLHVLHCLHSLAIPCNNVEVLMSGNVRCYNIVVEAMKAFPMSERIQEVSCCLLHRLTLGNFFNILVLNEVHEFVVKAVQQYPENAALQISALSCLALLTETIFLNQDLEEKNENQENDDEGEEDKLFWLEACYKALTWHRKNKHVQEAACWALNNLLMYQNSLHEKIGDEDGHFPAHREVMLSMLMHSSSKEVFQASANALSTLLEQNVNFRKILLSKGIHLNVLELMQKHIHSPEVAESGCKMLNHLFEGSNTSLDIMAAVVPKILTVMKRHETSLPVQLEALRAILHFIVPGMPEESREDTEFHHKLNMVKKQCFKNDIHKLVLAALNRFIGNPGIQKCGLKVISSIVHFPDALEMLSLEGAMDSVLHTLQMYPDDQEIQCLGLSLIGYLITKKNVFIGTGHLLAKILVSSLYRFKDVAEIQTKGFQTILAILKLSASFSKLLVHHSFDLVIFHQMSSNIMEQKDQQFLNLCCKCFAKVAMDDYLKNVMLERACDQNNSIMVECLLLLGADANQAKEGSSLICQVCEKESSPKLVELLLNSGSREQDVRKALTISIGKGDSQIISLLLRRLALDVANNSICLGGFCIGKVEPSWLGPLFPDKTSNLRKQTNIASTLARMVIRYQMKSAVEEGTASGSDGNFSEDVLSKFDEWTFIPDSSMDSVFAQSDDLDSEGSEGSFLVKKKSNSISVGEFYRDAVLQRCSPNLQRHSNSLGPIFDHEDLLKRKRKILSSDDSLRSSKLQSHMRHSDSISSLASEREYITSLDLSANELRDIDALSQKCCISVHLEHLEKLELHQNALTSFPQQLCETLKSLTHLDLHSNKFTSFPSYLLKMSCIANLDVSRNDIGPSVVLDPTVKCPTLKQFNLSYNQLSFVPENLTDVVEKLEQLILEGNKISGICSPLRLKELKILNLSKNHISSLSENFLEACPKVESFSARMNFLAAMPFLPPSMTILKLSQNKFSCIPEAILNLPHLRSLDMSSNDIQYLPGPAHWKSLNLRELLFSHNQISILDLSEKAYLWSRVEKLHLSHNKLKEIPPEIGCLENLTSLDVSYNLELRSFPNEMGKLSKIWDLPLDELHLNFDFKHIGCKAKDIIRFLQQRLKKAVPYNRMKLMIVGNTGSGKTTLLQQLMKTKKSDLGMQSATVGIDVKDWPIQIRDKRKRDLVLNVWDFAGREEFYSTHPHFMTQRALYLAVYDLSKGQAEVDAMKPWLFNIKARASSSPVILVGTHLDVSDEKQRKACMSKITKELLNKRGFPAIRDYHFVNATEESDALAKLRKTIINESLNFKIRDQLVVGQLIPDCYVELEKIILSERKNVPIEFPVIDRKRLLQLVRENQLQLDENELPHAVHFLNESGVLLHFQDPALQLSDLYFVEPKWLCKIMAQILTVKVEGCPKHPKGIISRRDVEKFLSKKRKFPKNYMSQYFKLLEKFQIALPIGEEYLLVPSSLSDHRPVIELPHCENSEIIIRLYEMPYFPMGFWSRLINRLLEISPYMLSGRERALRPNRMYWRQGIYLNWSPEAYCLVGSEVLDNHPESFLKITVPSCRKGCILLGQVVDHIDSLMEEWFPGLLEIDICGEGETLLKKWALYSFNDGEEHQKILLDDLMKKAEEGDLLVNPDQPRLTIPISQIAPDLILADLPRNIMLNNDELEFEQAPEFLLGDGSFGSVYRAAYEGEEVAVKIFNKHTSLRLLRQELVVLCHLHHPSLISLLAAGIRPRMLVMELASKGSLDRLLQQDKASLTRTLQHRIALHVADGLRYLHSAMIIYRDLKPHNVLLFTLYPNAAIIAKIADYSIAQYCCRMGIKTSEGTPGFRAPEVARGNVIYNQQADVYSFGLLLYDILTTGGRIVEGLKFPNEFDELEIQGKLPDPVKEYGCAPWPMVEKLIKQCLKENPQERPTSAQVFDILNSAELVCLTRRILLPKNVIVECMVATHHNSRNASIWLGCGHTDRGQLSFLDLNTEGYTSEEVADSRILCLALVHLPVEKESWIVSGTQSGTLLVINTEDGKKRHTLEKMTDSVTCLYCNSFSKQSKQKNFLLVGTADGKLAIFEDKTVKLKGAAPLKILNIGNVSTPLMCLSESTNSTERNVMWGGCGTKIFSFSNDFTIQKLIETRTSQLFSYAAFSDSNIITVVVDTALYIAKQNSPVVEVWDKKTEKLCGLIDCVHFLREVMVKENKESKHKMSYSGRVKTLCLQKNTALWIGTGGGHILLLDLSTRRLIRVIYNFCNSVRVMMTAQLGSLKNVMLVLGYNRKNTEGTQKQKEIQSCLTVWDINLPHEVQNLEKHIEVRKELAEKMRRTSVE

With “FARM2: FAM-labeled hydrocarbon-stapled FADD Armadillo domain peptide; mass fits SEQ ID NO. 3 KVADLXQEVXQARDLQNRSK ({FAM-PEG3′}-KVADL[S5]QEV[S5]QARDLQNRSK-NH2; staple 6-10; not fully specified) [FAM-labeled hydrocarbon-stapled FADD Armadillo domain peptide; 3 KVADLXQEVX…]”, the “amount of FADD that co-purified with G2019S-LRRK2 (LRRK2-FADD interaction)” value is “to a lesser extent”. Under “FARM3: FAM-labeled hydrocarbon-stapled FADD Armadillo domain peptide; mass fits SEQ ID NO. 4 KVADLVQEXQQAXDLQNRSK ({FAM-PEG3′}-KVADLVQE[S5]QQA[S5]DLQNRSK-NH2; staple 9-13; not fully specified) [FAM-labeled hydrocarbon-stapled FADD Armadillo domain peptide; 4 KVADLVQEXQQAXDLQNRSK]” stands “reduced the interaction between LRRK2 and FADD”.
